Measured values: patent publication US20010014328A1

Biological target: human FcαRI (IgA Fc receptor, CD89) on effector cells (human) (UniProt P24071)
Experiment: cell-based or functional assay

BsAb-dependent lysis of SKBR-3 cells by purified PMN, 1.0 µg/ml BsAb (FIG. 10)	cytolysis of SKBR-3 breast tumor cells by effector cells in whole blood, 0.1 µg/ml BsAb (FIG. 8)	cytolysis of SKBR-3 breast tumor cells by effector cells in whole blood, 1.0 µg/ml BsAb (FIG. 8)	percent effector cells (monocytes or neutrophils) engaged in phagocytosis of SKBR-3 cells (FIG. 18)	phagocytosis of SKBR-3 cells by monocyte-derived macrophages, 0.1 µg/ml BsAb (FIG. 19, panel 5; about 45% without BsAb)	BsAb-dependent lysis of A431 cells by purified monocytes (FIG. 14)	BsAb-dependent lysis of A431 cells with whole blood as source of effector cells (FIG. 15)	cytolysis of tumor cells by TNF-treated monocytes, 1.0 µg/ml BsAb (FIG. 23)	cytolysis of tumor cells by untreated monocytes, 1.0 µg/ml BsAb (FIG. 23)	Substance	cytotoxicity of SKBR-3 cells by neutrophil effector cells (51Cr release), 0.1 µg/ml BsAb (FIG. 7)	cytotoxicity of SKBR-3 cells by neutrophil effector cells (51Cr release), 1.0 µg/ml BsAb (FIG. 7)	cytotoxicity of SKBR-3 cells by neutrophils pre-incubated with G-CSF and IFN-γ, 0.1 µg/ml BsAb (FIG. 22)
< 37%	15 to 20%	25 to 30%	65 to 75%	> 95%	–	–	–	–	A77X520C9 anti-FcαRXanti-HER2/neu bispecific antibody	6 to 9%	20 to 30%	> 10%
–	–	–	–	–	< 55%	< 43%	> 60%	> 60%	A77XH425 bispecific antibody (anti-FcαRI x anti-EGF-R)	–	–	–
